The source of these data is US20240270846A1 (published 2024).

Sequences and labels used below:
B1: GLS3000 H27dA (Kabat) L chain altered form, one-arm antibody with CE115HA000 (antibody, human IgG1, kappa, L234A L235A, N297A, name in Kabat numbering)
heavy: QVQLVESGGGVVQPGRSLRLSCAASGFTFSNAWMHWVRQAPGKGLEWVAQIKAKSNNYATYYAESVKGRFTISRDDSKNSLYLQMNSLKTEDTAVYYCRYVHYGAYYGVDAWGQGTTVTVSSASTKGPSVFPLAPSSKSTSGGTAALGCLVKDYFPEPVTVSWNSGALTSGVHTFPAVLQSSGLYSLSSVVTVPSSSLGTQTYICNVNHKPSNTKVDKKVEPKSCDKTHTCPPCPAPEAAGGPSVFLFPPKPKDTLMISRTPEVTCVVVDVSHEDPEVKFNWYVDGVEVHNAKTKPREEQYASTYRVVSVLTVLHQDWLNGKEYKCKVSNKALPAPIEKTISKAKGQPREPQVYTLPPSRCELTKNQVSLSCAVKGFYPSDIAVEWESNGQPENNYKTTPPVLDSDGSFFLVSKLTVDKSRWQQGNVFSCSVMHEALHNHYTQKSLSLSPDYKDDDDK
chain: EPKSSDKTHTCPPCPAPELLGGPSVFLFPPKPKDTLMISRTPEVTCVVVDVSHEDPEVKFNWYVDGVEVHNAKTKPREEQYNSTYRVVSVLTVLHQDWLNGKEYKCKVSNKALPAPIEKTISKAKGQPREPQVCTLPPSRDELTKNQVSLWCLVKGFYPSDIAVEWESNGQPENNYKTTPPVLDSDGSFFLYSKLTVDKSRWQQGNVFSCSVMHEALHNRYTQKSLSLSP
light: DIVMTQSPLSLPVTPGEPASISCRSSQSLVASNRNTYLHWYQQKPGQAPRLLIYKVSNRFSGVPDRFSGSGSGTDFTLKISRVEAEDVGVYYCGQGTQVPYTFGQGTKLEIKRTVAAPSVFIFPPSDEQLKSGTASVVCLLNNFYPREAKVQWKVDNALQSGNSQESVTEQDSKDSTYSLSSTLTLSKADYEKHKVYACEVTHQGLSSPVTKSFNRGEC
notes: one-arm antibody
B2: GLS3000 H27dF (Kabat) L chain altered form, one-arm antibody with CE115HA000 (antibody, human IgG1, kappa, L234A L235A, N297A, name in Kabat numbering)
heavy: QVQLVESGGGVVQPGRSLRLSCAASGFTFSNAWMHWVRQAPGKGLEWVAQIKAKSNNYATYYAESVKGRFTISRDDSKNSLYLQMNSLKTEDTAVYYCRYVHYGAYYGVDAWGQGTTVTVSSASTKGPSVFPLAPSSKSTSGGTAALGCLVKDYFPEPVTVSWNSGALTSGVHTFPAVLQSSGLYSLSSVVTVPSSSLGTQTYICNVNHKPSNTKVDKKVEPKSCDKTHTCPPCPAPEAAGGPSVFLFPPKPKDTLMISRTPEVTCVVVDVSHEDPEVKFNWYVDGVEVHNAKTKPREEQYASTYRVVSVLTVLHQDWLNGKEYKCKVSNKALPAPIEKTISKAKGQPREPQVYTLPPSRCELTKNQVSLSCAVKGFYPSDIAVEWESNGQPENNYKTTPPVLDSDGSFFLVSKLTVDKSRWQQGNVFSCSVMHEALHNHYTQKSLSLSPDYKDDDDK
chain: EPKSSDKTHTCPPCPAPELLGGPSVFLFPPKPKDTLMISRTPEVTCVVVDVSHEDPEVKFNWYVDGVEVHNAKTKPREEQYNSTYRVVSVLTVLHQDWLNGKEYKCKVSNKALPAPIEKTISKAKGQPREPQVCTLPPSRDELTKNQVSLWCLVKGFYPSDIAVEWESNGQPENNYKTTPPVLDSDGSFFLYSKLTVDKSRWQQGNVFSCSVMHEALHNRYTQKSLSLSP
light: DIVMTQSPLSLPVTPGEPASISCRSSQSLVFSNRNTYLHWYQQKPGQAPRLLIYKVSNRFSGVPDRFSGSGSGTDFTLKISRVEAEDVGVYYCGQGTQVPYTFGQGTKLEIKRTVAAPSVFIFPPSDEQLKSGTASVVCLLNNFYPREAKVQWKVDNALQSGNSQESVTEQDSKDSTYSLSSTLTLSKADYEKHKVYACEVTHQGLSSPVTKSFNRGEC
notes: one-arm antibody
B3: GLS3000 H27dD (Kabat) L chain altered form, one-arm antibody with CE115HA000 (antibody, human IgG1, kappa, L234A L235A, N297A, name in Kabat numbering)
heavy: QVQLVESGGGVVQPGRSLRLSCAASGFTFSNAWMHWVRQAPGKGLEWVAQIKAKSNNYATYYAESVKGRFTISRDDSKNSLYLQMNSLKTEDTAVYYCRYVHYGAYYGVDAWGQGTTVTVSSASTKGPSVFPLAPSSKSTSGGTAALGCLVKDYFPEPVTVSWNSGALTSGVHTFPAVLQSSGLYSLSSVVTVPSSSLGTQTYICNVNHKPSNTKVDKKVEPKSCDKTHTCPPCPAPEAAGGPSVFLFPPKPKDTLMISRTPEVTCVVVDVSHEDPEVKFNWYVDGVEVHNAKTKPREEQYASTYRVVSVLTVLHQDWLNGKEYKCKVSNKALPAPIEKTISKAKGQPREPQVYTLPPSRCELTKNQVSLSCAVKGFYPSDIAVEWESNGQPENNYKTTPPVLDSDGSFFLVSKLTVDKSRWQQGNVFSCSVMHEALHNHYTQKSLSLSPDYKDDDDK
chain: EPKSSDKTHTCPPCPAPELLGGPSVFLFPPKPKDTLMISRTPEVTCVVVDVSHEDPEVKFNWYVDGVEVHNAKTKPREEQYNSTYRVVSVLTVLHQDWLNGKEYKCKVSNKALPAPIEKTISKAKGQPREPQVCTLPPSRDELTKNQVSLWCLVKGFYPSDIAVEWESNGQPENNYKTTPPVLDSDGSFFLYSKLTVDKSRWQQGNVFSCSVMHEALHNRYTQKSLSLSP
light: DIVMTQSPLSLPVTPGEPASISCRSSQSLVDSNRNTYLHWYQQKPGQAPRLLIYKVSNRFSGVPDRFSGSGSGTDFTLKISRVEAEDVGVYYCGQGTQVPYTFGQGTKLEIKRTVAAPSVFIFPPSDEQLKSGTASVVCLLNNFYPREAKVQWKVDNALQSGNSQESVTEQDSKDSTYSLSSTLTLSKADYEKHKVYACEVTHQGLSSPVTKSFNRGEC
notes: one-arm antibody
B4: GLS3000 H27dG (Kabat) L chain altered form, one-arm antibody with CE115HA000 (antibody, human IgG1, kappa, L234A L235A, N297A, name in Kabat numbering)
heavy: QVQLVESGGGVVQPGRSLRLSCAASGFTFSNAWMHWVRQAPGKGLEWVAQIKAKSNNYATYYAESVKGRFTISRDDSKNSLYLQMNSLKTEDTAVYYCRYVHYGAYYGVDAWGQGTTVTVSSASTKGPSVFPLAPSSKSTSGGTAALGCLVKDYFPEPVTVSWNSGALTSGVHTFPAVLQSSGLYSLSSVVTVPSSSLGTQTYICNVNHKPSNTKVDKKVEPKSCDKTHTCPPCPAPEAAGGPSVFLFPPKPKDTLMISRTPEVTCVVVDVSHEDPEVKFNWYVDGVEVHNAKTKPREEQYASTYRVVSVLTVLHQDWLNGKEYKCKVSNKALPAPIEKTISKAKGQPREPQVYTLPPSRCELTKNQVSLSCAVKGFYPSDIAVEWESNGQPENNYKTTPPVLDSDGSFFLVSKLTVDKSRWQQGNVFSCSVMHEALHNHYTQKSLSLSPDYKDDDDK
chain: EPKSSDKTHTCPPCPAPELLGGPSVFLFPPKPKDTLMISRTPEVTCVVVDVSHEDPEVKFNWYVDGVEVHNAKTKPREEQYNSTYRVVSVLTVLHQDWLNGKEYKCKVSNKALPAPIEKTISKAKGQPREPQVCTLPPSRDELTKNQVSLWCLVKGFYPSDIAVEWESNGQPENNYKTTPPVLDSDGSFFLYSKLTVDKSRWQQGNVFSCSVMHEALHNRYTQKSLSLSP
light: DIVMTQSPLSLPVTPGEPASISCRSSQSLVGSNRNTYLHWYQQKPGQAPRLLIYKVSNRFSGVPDRFSGSGSGTDFTLKISRVEAEDVGVYYCGQGTQVPYTFGQGTKLEIKRTVAAPSVFIFPPSDEQLKSGTASVVCLLNNFYPREAKVQWKVDNALQSGNSQESVTEQDSKDSTYSLSSTLTLSKADYEKHKVYACEVTHQGLSSPVTKSFNRGEC
notes: one-arm antibody
B5: GLS3000 F55A (Kabat) L chain altered form, one-arm antibody with CE115HA000 (antibody, human IgG1, kappa, L234A L235A, N297A, name in Kabat numbering)
heavy: QVQLVESGGGVVQPGRSLRLSCAASGFTFSNAWMHWVRQAPGKGLEWVAQIKAKSNNYATYYAESVKGRFTISRDDSKNSLYLQMNSLKTEDTAVYYCRYVHYGAYYGVDAWGQGTTVTVSSASTKGPSVFPLAPSSKSTSGGTAALGCLVKDYFPEPVTVSWNSGALTSGVHTFPAVLQSSGLYSLSSVVTVPSSSLGTQTYICNVNHKPSNTKVDKKVEPKSCDKTHTCPPCPAPEAAGGPSVFLFPPKPKDTLMISRTPEVTCVVVDVSHEDPEVKFNWYVDGVEVHNAKTKPREEQYASTYRVVSVLTVLHQDWLNGKEYKCKVSNKALPAPIEKTISKAKGQPREPQVYTLPPSRCELTKNQVSLSCAVKGFYPSDIAVEWESNGQPENNYKTTPPVLDSDGSFFLVSKLTVDKSRWQQGNVFSCSVMHEALHNHYTQKSLSLSPDYKDDDDK
chain: EPKSSDKTHTCPPCPAPELLGGPSVFLFPPKPKDTLMISRTPEVTCVVVDVSHEDPEVKFNWYVDGVEVHNAKTKPREEQYNSTYRVVSVLTVLHQDWLNGKEYKCKVSNKALPAPIEKTISKAKGQPREPQVCTLPPSRDELTKNQVSLWCLVKGFYPSDIAVEWESNGQPENNYKTTPPVLDSDGSFFLYSKLTVDKSRWQQGNVFSCSVMHEALHNRYTQKSLSLSP
light: DIVMTQSPLSLPVTPGEPASISCRSSQSLVHSNRNTYLHWYQQKPGQAPRLLIYKVSNRASGVPDRFSGSGSGTDFTLKISRVEAEDVGVYYCGQGTQVPYTFGQGTKLEIKRTVAAPSVFIFPPSDEQLKSGTASVVCLLNNFYPREAKVQWKVDNALQSGNSQESVTEQDSKDSTYSLSSTLTLSKADYEKHKVYACEVTHQGLSSPVTKSFNRGEC
notes: one-arm antibody
B6: GLS3000 H27dE (Kabat) L chain altered form, one-arm antibody with CE115HA000 (antibody, human IgG1, kappa, L234A L235A, N297A, name in Kabat numbering)
heavy: QVQLVESGGGVVQPGRSLRLSCAASGFTFSNAWMHWVRQAPGKGLEWVAQIKAKSNNYATYYAESVKGRFTISRDDSKNSLYLQMNSLKTEDTAVYYCRYVHYGAYYGVDAWGQGTTVTVSSASTKGPSVFPLAPSSKSTSGGTAALGCLVKDYFPEPVTVSWNSGALTSGVHTFPAVLQSSGLYSLSSVVTVPSSSLGTQTYICNVNHKPSNTKVDKKVEPKSCDKTHTCPPCPAPEAAGGPSVFLFPPKPKDTLMISRTPEVTCVVVDVSHEDPEVKFNWYVDGVEVHNAKTKPREEQYASTYRVVSVLTVLHQDWLNGKEYKCKVSNKALPAPIEKTISKAKGQPREPQVYTLPPSRCELTKNQVSLSCAVKGFYPSDIAVEWESNGQPENNYKTTPPVLDSDGSFFLVSKLTVDKSRWQQGNVFSCSVMHEALHNHYTQKSLSLSPDYKDDDDK
chain: EPKSSDKTHTCPPCPAPELLGGPSVFLFPPKPKDTLMISRTPEVTCVVVDVSHEDPEVKFNWYVDGVEVHNAKTKPREEQYNSTYRVVSVLTVLHQDWLNGKEYKCKVSNKALPAPIEKTISKAKGQPREPQVCTLPPSRDELTKNQVSLWCLVKGFYPSDIAVEWESNGQPENNYKTTPPVLDSDGSFFLYSKLTVDKSRWQQGNVFSCSVMHEALHNRYTQKSLSLSP
light: DIVMTQSPLSLPVTPGEPASISCRSSQSLVESNRNTYLHWYQQKPGQAPRLLIYKVSNRFSGVPDRFSGSGSGTDFTLKISRVEAEDVGVYYCGQGTQVPYTFGQGTKLEIKRTVAAPSVFIFPPSDEQLKSGTASVVCLLNNFYPREAKVQWKVDNALQSGNSQESVTEQDSKDSTYSLSSTLTLSKADYEKHKVYACEVTHQGLSSPVTKSFNRGEC
notes: one-arm antibody
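Also: antibody variants flowed as analyte over CD3 epsilon homodimer amine-coupled to a CM4 chip, at 25 °C in HBS-EP+ running buffer, fitted with Biacore T200 Evaluation Software.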

The target in the experiment is T1, CD3 epsilon homodimer protein (UniProt P07766 23-126).
T1 construct: construct not described; homodimer as printed; also called CD3 (CD3 epsilon)
T1 sequence (P07766 23-126): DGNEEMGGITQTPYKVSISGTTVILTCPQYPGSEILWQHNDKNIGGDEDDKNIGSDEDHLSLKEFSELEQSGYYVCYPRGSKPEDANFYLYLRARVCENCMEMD
The experiment can be described thus: SPR Biacore T200, CD3 epsilon homodimer immobilized; vs unaltered GLS3000. (SPR reads the build-up and loss of mass on a sensor chip optically.)
As to B1, the “KD ratio to GLS3000 (Affinity up)” value worked out at 2.57.

Turning to B2, the “KD ratio to GLS3000 (Affinity up)” value came to 2.05.

For B3, the “KD ratio to GLS3000 (Affinity up)” value worked out at 13600.

As for B4, the “KD ratio to GLS3000 (Affinity up)” value was determined as 3.51.

In the case of B5, the “KD ratio to GLS3000 (Affinity up)” value came to 1.16.

Consider B6, for which the “KD ratio to GLS3000 (Affinity up)” value was 42.3.
